Data reported in IntAct's records for PubMed 25737013.

B1: Splicing factor 3B subunit 2 (Homo sapiens), Q13435 (parent)
chain: MATEHPEPPKAELQLPPPPPPGHYGAWAAQELQAKLAEIGAPIQGNREELVERLQSYTRQTGIVLNRPVLRGEDGDKAAPPPMSAQLPGIPMPPPPLGLPPLQPPPPPPPPPPGLGLGFPMAHPPNLGPPPPLRVGEPVALSEEERLKLAQQQAALLMQQEERAKQQGDHSLKEHELLEQQKRAAVLLEQERQQEIAKMGTPVPRPPQDMGQIGVRTPLGPRVAAPVGPVGPTPTVLPMGAPVPRPRGPPPPPGDENREMDDPSVGPKIPQALEKILQLKESRQEEMNSQQEEEEMETDARSSLGQSASETEEDTVSVSKKEKNRKRRNRKKKKKPQRVRGVSSESSGDREKDSTRSRGSDSPAADVEIEYVTEEPEIYEPNFIFFKRIFEAFKLTDDVKKEKEKEPEKLDKLENSAAPKKKGFEEEHKDSDDDSSDDEQEKKPEAPKLSKKKLRRMNRFTVAELKQLVARPDVVEMHDVTAQDPKLLVHLKATRNSVPVPRHWCFKRKYLQGKRGIEKPPFELPDFIKRTGIQEMREALQEKEEQKTMKSKMREKVRPKMGKIDIDYQKLHDAFFKWQTKPKLTIHGDLYYEGKEFETRLKEKKPGDLSDELRISLGMPVGPNAHKVPPPWLIAMQRYGPPPSYPNLKIPGLNSPIPESCSFGYHAGGWGKPPVDETGKPLYGDVFGTNAAEFQTKTEEEEIDRTPWGELEPSDEESSEEEEEEESDEDKPDETGFITPADSGLITPGGFSSVPAGMETPELIELRKKKIEEAMDGSETPQLFTVLPEKRTATVGGAMMGSTHIYDMSTVMSRKGPAPELQGVEVALAPEELELDPMAMTQKYEEHVREQQAQVEKEDFSDMVAEHAAKQKQKKRKAQPQDSRGGSKKYKEFKF
B2: Splicing factor 3B subunit 2 (Homo sapiens), Q13435 (parent)
chain: B1 chain
partner: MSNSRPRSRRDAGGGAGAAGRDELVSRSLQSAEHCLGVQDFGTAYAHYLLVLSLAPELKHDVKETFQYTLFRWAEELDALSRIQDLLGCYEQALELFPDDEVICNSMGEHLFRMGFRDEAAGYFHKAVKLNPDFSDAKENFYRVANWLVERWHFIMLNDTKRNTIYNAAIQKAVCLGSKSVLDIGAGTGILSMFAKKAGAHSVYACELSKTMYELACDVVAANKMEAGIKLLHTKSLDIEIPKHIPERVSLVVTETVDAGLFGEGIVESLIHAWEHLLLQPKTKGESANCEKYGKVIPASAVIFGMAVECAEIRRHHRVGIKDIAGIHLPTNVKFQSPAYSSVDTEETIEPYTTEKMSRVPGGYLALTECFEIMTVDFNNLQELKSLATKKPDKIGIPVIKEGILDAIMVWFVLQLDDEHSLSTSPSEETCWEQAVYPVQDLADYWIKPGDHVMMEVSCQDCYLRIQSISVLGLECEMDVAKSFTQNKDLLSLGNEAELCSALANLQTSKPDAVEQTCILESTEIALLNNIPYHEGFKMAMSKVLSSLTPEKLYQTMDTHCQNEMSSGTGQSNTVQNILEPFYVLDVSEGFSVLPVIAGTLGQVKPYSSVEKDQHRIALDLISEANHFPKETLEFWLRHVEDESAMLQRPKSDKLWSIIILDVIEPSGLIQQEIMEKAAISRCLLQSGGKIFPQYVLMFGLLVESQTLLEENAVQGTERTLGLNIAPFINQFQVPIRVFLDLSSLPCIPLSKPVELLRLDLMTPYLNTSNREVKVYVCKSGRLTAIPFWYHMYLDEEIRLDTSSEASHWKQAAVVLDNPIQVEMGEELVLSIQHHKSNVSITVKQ
B3: Protein arginine N-methyltransferase 9 (Homo sapiens), Q6P2P2 (parent)
chain: B2 partner

Variants of: B1
Conditions: with smn_human SMN1, Q16637
smn_human SMN1, Q16637, sequence (Q16637 whole entry): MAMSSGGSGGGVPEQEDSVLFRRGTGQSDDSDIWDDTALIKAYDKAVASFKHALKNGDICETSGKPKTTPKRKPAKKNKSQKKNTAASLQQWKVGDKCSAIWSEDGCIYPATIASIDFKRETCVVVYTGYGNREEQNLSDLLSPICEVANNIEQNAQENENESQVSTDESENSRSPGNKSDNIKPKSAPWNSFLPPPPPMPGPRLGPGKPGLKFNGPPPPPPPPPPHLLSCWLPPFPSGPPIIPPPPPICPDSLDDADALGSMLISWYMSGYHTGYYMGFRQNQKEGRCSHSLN

| effect of a mutation on the interaction | Variant |
| --- | --- |
| disrupting interaction strength | R508K |

Variants of: B2
Conditions: with anm9_human PRMT9, Q6P2P2

| Variant | effect of a mutation on the interaction |
| --- | --- |
| R495K | with no effect |
| R471K | with no effect |
| R455K;R456K;R459K | with no effect |
| R502K | with no effect |

Now from value to variant:

| effect of a mutation on the interaction | Variant |
| --- | --- |
| with no effect | R515K |
| with no effect | R530K |
| with no effect | R537K |

Variants of: B2
Conditions: with anm9_human PRMT9, Q6P2P2
Remark: another data set of the same source

| effect of a mutation on the interaction | Variant |
| --- | --- |
| with no effect | R508K |

Variants of: B3
Conditions: with sf3b2_human SF3B2, Q13435

| effect of a mutation on the interaction | Variant |
| --- | --- |
| disrupting interaction strength | L182A;D183A;I184A;G185A |
